Laboratory results: the supplement of paper PMC9732359
± gives the uncertainty stated by the source.

Experiment: protein stability index of a GFP-peptide fusion (yeast GPS) (PSI 1-4); higher = more stable; sorted into four equal gates, so the index is relative within each strain
Outline: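 The protein stability index combines read frequencies across sorting gates, each weighted by its gate number and then summed. To obtain those frequencies, a pooled yeast library of GFP fusions to tiled 17-residue yeast protein peptides, on a plasmid also expressing Cherry, was grown to mid-log phase in leucine-free medium. The cells were sorted into four equal gates by GFP/Cherry ratio before plasmid amplification by PCR and Illumina sequencing.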

Sequence	protein stability index (doa10∆)	protein stability index (pdr5∆)	protein stability index (san1∆)	protein stability index (ubr1∆)
DEDDDQPMISPDNSIFG [SWI3]	3.22 ± 0.078	3.35 ± 0.083	3.2 ± 0.086	2.94 ± 0.088
ISAFTQFLRLIFVSILS [ARP9]	2.17 ± 0.065	1.88 ± 0.1	2.9 ± 0.12	1.22 ± 0.027
DVILDYQTKKFYDYIKE [REC8]	2.4 ± 0.06	2.58 ± 0.052	2.55 ± 0.071	2.92 ± 0.051
LDNLKLKELRIDNSPQA [GRR1]	2.65 ± 0.054	2.72 ± 0.07	2.69 ± 0.07	2.94 ± 0.042
ISKDCSAFACKTDEVII [BRR2]	2.99 ± 0.12	3.38 ± 0.082	3.44 ± 0.088	2.88 ± 0.073
EIMQQKFPATNVTTILD [ECM29]	2.41 ± 0.061	2.47 ± 0.055	2.19 ± 0.063	2.45 ± 0.057
VGFGESNFTSIIGPNGS [SMC1]	3.37 ± 0.09	3.34 ± 0.078	3.15 ± 0.047	3.07 ± 0.054
SLVKYPELLDSLAILGM [SWI1]	1.89 ± 0.06	2.31 ± 0.054	1.99 ± 0.075	2.16 ± 0.051
LKDIVGQTSRTVTPAPN [ITC1]	2.97 ± 0.064	3 ± 0.041	2.9 ± 0.049	2.95 ± 0.044
ALERYDEAEGRFEVINN [SMC1]		1.12 ± 0.17		
QQMQPPNSSANNNPLQQ [GAL11]	3.02 ± 0.055	2.9 ± 0.05	2.89 ± 0.041	2.95 ± 0.048
DNNSKAEASFTFGTKHA [YLR335W/NUP2]	3.21 ± 0.082	3.09 ± 0.076	2.93 ± 0.049	3.02 ± 0.053
YLRVSFKNTRETAQAIN [RPL17A]	1.51 ± 0.03	1.34 ± 0.042	1.5 ± 0.1	1.31 ± 0.034
SSENNQIILAYIKYNIL [SRP68]	3.06 ± 0.065	2.82 ± 0.074	2.92 ± 0.076	2.88 ± 0.062
PHTTLVNECIAQSHQRF [CDC53]	2.79 ± 0.066	2.92 ± 0.052	2.85 ± 0.055	2.98 ± 0.039
KGHKFNNTKAGRRKTWK [RPL15A]	2.79 ± 0.063	2.93 ± 0.081	2.8 ± 0.093	3.1 ± 0.1
AKDKEIYNKMIGVLNNS [RPN13]	2.6 ± 0.084	2.94 ± 0.1	2.72 ± 0.053	2.93 ± 0.065
KCVVIHNGSHRTVAGFS [ARP7]	2.67 ± 0.051	2.74 ± 0.048	2.54 ± 0.051	2.67 ± 0.035
IFTDFLPSSNGSSRIIA [RRP42]	3.15 ± 0.085	2.89 ± 0.084	3.07 ± 0.073	2.8 ± 0.069
SIDNDFSEEKAEEFDFN [YAR002W/NUP60]	3.19 ± 0.14	3.02 ± 0.11	3.17 ± 0.092	3.12 ± 0.1
ALLTVLKALSHHYNPKT [BRR2]	2.28 ± 0.07	2.25 ± 0.051	1.91 ± 0.081	2.41 ± 0.062
QKVFVRSRNGGATKIVR [DIS3]	2.33 ± 0.085	1.59 ± 0.11	2.88 ± 0.1	2.45 ± 0.21
NTSLISLFTYFREAIVA [PRP8]	1.3 ± 0.049	1.49 ± 0.054	1.34 ± 0.1	1.44 ± 0.049
PLDTIETELPTLSLPDS [SMC1]	3 ± 0.12	2.92 ± 0.12	2.92 ± 0.083	3.09 ± 0.089
RDLILTEYGRKYNVNIS [PRP8]	2.2 ± 0.18	2.42 ± 0.098	3.14 ± 0.23	2.28 ± 0.059
AAPKKTRKAVRPQKLRA [RPL6B]	2.64 ± 0.11	2.61 ± 0.29	2.8 ± 0.16	

Sequence	protein stability index (doa10∆)	protein stability index (pdr5∆)	protein stability index (san1∆)	protein stability index (ubr1∆)
VRWIETQDVFLKDFNTE [FAS2]	3.227 ± 0.03	3.065 ± 0.026	3.014 ± 0.025	3.154 ± 0.021
LPEILNVLCVNIKSNDF [ECM29]	1.56 ± 0.046	1.58 ± 0.047	1.37 ± 0.088	1.58 ± 0.035
LLNVSVNITKFSKFERS [SKI6]	2.32 ± 0.075	2.49 ± 0.049	2.7 ± 0.06	2.44 ± 0.039
ISVNSSSFSLTFFPRCI [POP1]	2.55 ± 0.03	2.66 ± 0.035	2.44 ± 0.039	2.44 ± 0.031
DDFFKELAKEAKKSTTI [ESC2]	3.17 ± 0.12	3.09 ± 0.12	2.97 ± 0.094	3.36 ± 0.091
KKAFTSYDRTLLIADSR [RPS16A]	2.25 ± 0.044	2.48 ± 0.073	1.9 ± 0.079	2.24 ± 0.059
KKVNGTSYKKWSFDLPE [PRP8]	2.2 ± 0.07	2.36 ± 0.084	2.25 ± 0.1	3.35 ± 0.12
NSSEQESDYEPNNETSV [SIR3]	3.11 ± 0.084	3.27 ± 0.085	3.02 ± 0.063	2.84 ± 0.092
LPMDTNLFKINSIDVPI [YMR129W/POM152]	1.98 ± 0.048	1.92 ± 0.035	2.49 ± 0.062	1.95 ± 0.045
SGEEKGKKVTGFKDEVL [RPS1A]	1.39 ± 0.24	1.73 ± 0.22		1.61 ± 0.14
SKKVTSGVPRLKEILNV [RPO21]	1.81 ± 0.1	2.06 ± 0.12	1.55 ± 0.23	1.1 ± 0.083
LDTRKELWRKEQKLQTV [SMC3]	1.79 ± 0.069	2.58 ± 0.081	2.83 ± 0.16	2.99 ± 0.058
TPDATKIKAILESVGIE [RPP2A]	2.31 ± 0.084	3.2 ± 0.16	3.08 ± 0.12	3.18 ± 0.063
NKFHKSIREDILECDLL [SIR2]	2.73 ± 0.058	2.91 ± 0.066	3 ± 0.049	3.08 ± 0.06
VRSREDRKNRAPPQRPR [RPS26A]	3.27 ± 0.26		2.76 ± 0.12	
TNKDIICQIISSTITGD [RPL5]	2.6 ± 0.055	2.13 ± 0.057	2.94 ± 0.1	2.24 ± 0.055
NGQRSNSIRAREVENSV [SMC1]	3.31 ± 0.075	3.37 ± 0.058	3.36 ± 0.048	3.19 ± 0.072
SNLEKLPKYKEKKAASA [MED7]	2.14 ± 0.06	2.82 ± 0.06	2.83 ± 0.06	2.25 ± 0.057
KIFIAVVWYQRLTMGNV [RRI2]	1.3 ± 0.044	1.25 ± 0.038	1.28 ± 0.082	1.27 ± 0.036
QVSNFAPQVYIITKNEN [GAL11]	2.96 ± 0.16	1.98 ± 0.11	2.38 ± 0.26	1.67 ± 0.084
DKILQLNDRFQTLSSHL [PGD1]	2.46 ± 0.048	2.66 ± 0.042	2.55 ± 0.051	2.46 ± 0.058
DSVLQLASFEKTTDHLF [RPO31]	2.63 ± 0.054	2.64 ± 0.04	2.83 ± 0.06	2.74 ± 0.041
LSNLHESNKRYRFFKKI [SNF12]	2.79 ± 0.12	2.68 ± 0.081	2.9 ± 0.08	2.24 ± 0.065
PEENATEGPSDKKLNLN [SNF12]		3.59 ± 0.17	3.27 ± 0.099	3.29 ± 0.1
MMVNNQTMQLIKNVQDL [SRB6]	2.84 ± 0.25	2.3 ± 0.16	1.64 ± 0.13	3.03 ± 0.17
VKWQYDPNNPVDFDGLD [SNF12]	2.74 ± 0.062	3.02 ± 0.053	2.25 ± 0.07	2.87 ± 0.03
